Results on 83 variants are retold here after the RNAGym collection of RNA variant scans (doi:10.1093/molbev/msab373).

B1: Azoarcus group I ribozyme (parent)
chain: GUGCCUUGCGCCGGGAAACCACGCAAGGGAUGGUGUCAAAUUCGGCGAAACCUAAGCGCCCGCCCGGGCGUAUGGCAACGCCGAGCCAAGCUUCGGCGCCUGCGCCGAUGAAGGUGUAGAGACUAGACGGCACCCACCUAAGGCAAACGCUAUGGUGAAGGCAUAGUCCAGGGAGUGGCGAAAGUCACACAAACCGG

In the data set the parent is B1. Description: reverse-splicing fitness (ratio to wild type); higher = more active; in vitro selection; Mg2+ level not given. The method in brief:
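An in vitro group I ribozyme library with randomized positions was T7-transcribed and gel-purified. In triplicate, 10 pmol RNA in EPPS pH 7.5 was reacted with 50 pmoles of a 30-nt RNA substrate for 1 h at 37 °C across several added MgCl2 levels (1–48 mM), then stopped with EDTA. Products were reverse transcribed from a substrate-complementary primer, PCR-amplified and sequenced (HiSeq 4000). Fitness is a variant's read proportion after selection over that before, normalised to wild type.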
C82U A111U C150G C169A U176A: the reverse-splicing fitness amounted to 0.00971. For C82U A111U A145U C169G U176G, the reverse-splicing fitness stood at 0.0053.

As to C82A A111G A120C C150G C169U U176G, the reverse-splicing fitness came out at 0.00651. Take C82U A111C A145G C150U C169G U176G: the reverse-splicing fitness was found to be 0.00674. As for C82U A111U A120C A145U C150A C169G, the reverse-splicing fitness worked out at 0.00687.

Take C82A A111U A145U C169A U176G: the reverse-splicing fitness came out at 0.00655. Turning to A111G A120U A145U C150A C169U, the reverse-splicing fitness is 0.0112.

As for C82G A145C C150G U176G, the reverse-splicing fitness came out at 0.0106. The same measure for C82U A111C A120G A145C C150U C169U U176A: 0.0137; for C82G A111C A120G A145C C150U C169U U176A: 0.0147. C82U A120G C169G U176C: the reverse-splicing fitness came out at 0.0246. With C82G A111G A145G C150G C169A, the reverse-splicing fitness came to 0.00978. Regarding C82U A111C A145G C150A C169A U176C, the reverse-splicing fitness is 0.0197. The same measure for C82A A111C A120C A145U C150G U176C: 0.00803; for A145C C150G C169A U176C: 0.0118; for A111U A120C A145C C150G C169U U176C: 0.0144.

Turning to C82U A111C A120U A145U C150U C169G U176C, the reverse-splicing fitness is 0.00305.

With C82U A111G A120G A145C C150G C169U U176C, the reverse-splicing fitness was found to be 0.0102.

For the variant C82U A111C A120C A145C C150G C169A U176G, the reverse-splicing fitness was found to be 0.00633. On to A111U A120C A145U C169G U176G, for which the reverse-splicing fitness is 0.00415. On to C82G A111C A145C C150U C169G U176C, for which the reverse-splicing fitness was found to be 0.0189.

In the case of A111U A120G A145G C169A U176A, the reverse-splicing fitness was 0.0312. Take A111U A120G A145G C169A U176C: the reverse-splicing fitness came to 0.0453.

As to C82A A111U A120U C169G, the reverse-splicing fitness turned out to be 0.00434. The same measure for C82A A111U A120C A145U C150G: 0.00883; for C82U A111G A120C A145U C150G C169U: 0.00776. The same measure for C82A A111C A120U A145G: 0.023; for C82A A111C A120G A145G C150G U176C: 0.0111; for C82G A120G A145G C150A C169G U176C: 0.0296. On to A111G A120C A145C C150G C169A U176G, for which the reverse-splicing fitness is 0.00452. In the case of A120C A145G C150U U176C, the reverse-splicing fitness came to 0.566. Consider C82U A111C A120G C150G, for which the reverse-splicing fitness is 0.00744.

For the variant C82A A111U A145G C150A C169G, the reverse-splicing fitness amounted to 0.00916. Turning to C82A A111G A120G A145G C169A U176A, the reverse-splicing fitness worked out at 0.0226.

On to C82U A111U A120C A145G C150U C169A U176C, for which the reverse-splicing fitness was 0.0136. For C82U A111C A145G C150A C169U, the reverse-splicing fitness amounted to 0.0103. As for A111U C169U U176C, the reverse-splicing fitness is 0.0365. For the variant C82G A111C A120U A145G C169G, the reverse-splicing fitness was 0.00473.

Consider C82A A111U A120U A145G C150U C169A, for which the reverse-splicing fitness came to 0.00728. Turning to C82G A111G A120U A145C C169A, the reverse-splicing fitness came to 0.00211. With A120G A145G C150G C169U U176A, the reverse-splicing fitness was determined as 0.0263. Turning to C82U A111C A120C A145U C150A, the reverse-splicing fitness stood at 0.0082. The same measure for C82U A111U A120C A145U C150A C169G U176C: 0.0124. In the case of C82A A111C A145G C150U C169U, the reverse-splicing fitness amounted to 0.0119. With C82G A111G A120U C150A C169A, the reverse-splicing fitness amounted to 0.00558.

As to C82G A111U A120G A145U C150U C169U U176C, the reverse-splicing fitness stood at 0.0167.

Take A111U A145U C169U U176C: the reverse-splicing fitness was 0.0326.

For the variant C82G A111G A145G C150G C169A U176A, the reverse-splicing fitness worked out at 0.015. As to C150U C169G U176A, the reverse-splicing fitness worked out at 0.0516. As to C82A A111G A120U A145C C150U C169U U176C, the reverse-splicing fitness amounted to 0.0025. For the variant A111C A120G A145U C150U C169G U176G, the reverse-splicing fitness stood at 0.00542.

C82G A120U A145U C150A U176G: the reverse-splicing fitness amounted to 0.00423.

For C82A A145G C150G C169A U176G, the reverse-splicing fitness was found to be 0.00857. On to A111U A120C U176A, for which the reverse-splicing fitness came to 0.277.

C82G A111U A120G C150A C169U U176G: the reverse-splicing fitness came to 0.00759. The same measure for C82G A120G A145C C150G C169G U176C: 0.00761. Consider A111U A120C A145C C169A U176G, for which the reverse-splicing fitness was 0.00493.

As for C82A A111C A120U A145U C150U C169G, the reverse-splicing fitness is 0.00466. On to C82A A120U A145U C150G C169A U176G, for which the reverse-splicing fitness was 0.00201. In the case of C82U A111U A120C A145C C150A U176G, the reverse-splicing fitness was 0.00471. In the case of C82A A111U A145G C150A C169U U176A, the reverse-splicing fitness came to 0.0158.

Regarding C82G A120G A145U C150U C169A U176A, the reverse-splicing fitness was found to be 0.0161.

Take C82A A111U A145C C150A C169U U176A: the reverse-splicing fitness was determined as 0.0155. The same measure for C82A A145G C150U C169A U176A: 0.0161. The same measure for C82G A111G A145U C150U C169A U176G: 0.00584; for C82A A111G A145C C169G U176A: 0.0278. Take C82U A120C A145G C169G U176C: the reverse-splicing fitness stood at 0.0181. With C82G A111U A120C A145C C150G C169G U176A, the reverse-splicing fitness was determined as 0.0106. C82A A111G A120G C169U U176C: the reverse-splicing fitness is 0.0183. The same measure for C82U A111U A120C A145C C150U: 0.0119; for C82A A111U C150G C169U U176A: 0.00699; for C82U A111C C150G C169U: 0.00902. The same measure for C82A A120G C150U C169U: 0.0111; for C82U A111U A120G C169U U176C: 0.0161; for C82A A111C A145G C150U C169U U176A: 0.0138. In the case of C82G A111U A120G C169A U176G, the reverse-splicing fitness was 0.00437.

As for C82G A111C A120U C150G U176G, the reverse-splicing fitness came out at 0.00279. Take C82A A111G A120G C150A C169A: the reverse-splicing fitness came to 0.0103. A120C C150A U176C: the reverse-splicing fitness came out at 0.195. In the case of C82G A111U A120G C150G C169U U176A, the reverse-splicing fitness was determined as 0.00893.

For C82U A111C A120C A145U C150U U176A, the reverse-splicing fitness came to 0.0105. With C82A A120U C150G C169A, the reverse-splicing fitness turned out to be 0.00708. As to C82A A111G A120U C150U C169G U176C, the reverse-splicing fitness came to 0.00437.
